Assay results from PMC3416963.

B1: LigI (Sphingobium sp. SYK-6; H178A) (protein)
chain: TNDERILSWNETPSKPRYTPPPGAIDAHCHVFGPMAQFPFSPKAKYLPRDAGPDMLFALRDHLGFARNVIVQASCHGTDNAATLDAIARAQGKARGIAVVDPAIDEAELAALHEGGMRGIRFNFLKRLVDDAPKDKFLEVAGRLPAGWHVVIYFEADILEELRPFMDAIPVPIVIDAMGRPDVRQGPDGADMKAFRRLLDSREDIWFKATCPDRLDPAGPPWDDFARSVAPLVADYADRVIWGTDWPHPNMQDAIPDDGLVVDMIPRIAPTPELQHKMLVTNPMRLYWSEEM
B2: LigI (Sphingobium sp. SYK-6; H178C) (protein)
chain: TNDERILSWNETPSKPRYTPPPGAIDAHCHVFGPMAQFPFSPKAKYLPRDAGPDMLFALRDHLGFARNVIVQASCHGTDNAATLDAIARAQGKARGIAVVDPAIDEAELAALHEGGMRGIRFNFLKRLVDDAPKDKFLEVAGRLPAGWHVVIYFEADILEELRPFMDAIPVPIVIDCMGRPDVRQGPDGADMKAFRRLLDSREDIWFKATCPDRLDPAGPPWDDFARSVAPLVADYADRVIWGTDWPHPNMQDAIPDDGLVVDMIPRIAPTPELQHKMLVTNPMRLYWSEEM
B3: LigI (Sphingobium sp. SYK-6; H31N) (protein)
chain: TNDERILSWNETPSKPRYTPPPGAIDAHCNVFGPMAQFPFSPKAKYLPRDAGPDMLFALRDHLGFARNVIVQASCHGTDNAATLDAIARAQGKARGIAVVDPAIDEAELAALHEGGMRGIRFNFLKRLVDDAPKDKFLEVAGRLPAGWHVVIYFEADILEELRPFMDAIPVPIVIDHMGRPDVRQGPDGADMKAFRRLLDSREDIWFKATCPDRLDPAGPPWDDFARSVAPLVADYADRVIWGTDWPHPNMQDAIPDDGLVVDMIPRIAPTPELQHKMLVTNPMRLYWSEEM
B4: LigI (Sphingobium sp. SYK-6; Y47F) (protein)
chain: TNDERILSWNETPSKPRYTPPPGAIDAHCHVFGPMAQFPFSPKAKFLPRDAGPDMLFALRDHLGFARNVIVQASCHGTDNAATLDAIARAQGKARGIAVVDPAIDEAELAALHEGGMRGIRFNFLKRLVDDAPKDKFLEVAGRLPAGWHVVIYFEADILEELRPFMDAIPVPIVIDHMGRPDVRQGPDGADMKAFRRLLDSREDIWFKATCPDRLDPAGPPWDDFARSVAPLVADYADRVIWGTDWPHPNMQDAIPDDGLVVDMIPRIAPTPELQHKMLVTNPMRLYWSEEM
B5: LigI (Sphingobium sp. SYK-6; Y154F) (protein)
chain: TNDERILSWNETPSKPRYTPPPGAIDAHCHVFGPMAQFPFSPKAKYLPRDAGPDMLFALRDHLGFARNVIVQASCHGTDNAATLDAIARAQGKARGIAVVDPAIDEAELAALHEGGMRGIRFNFLKRLVDDAPKDKFLEVAGRLPAGWHVVIFFEADILEELRPFMDAIPVPIVIDHMGRPDVRQGPDGADMKAFRRLLDSREDIWFKATCPDRLDPAGPPWDDFARSVAPLVADYADRVIWGTDWPHPNMQDAIPDDGLVVDMIPRIAPTPELQHKMLVTNPMRLYWSEEM
B6: LigI (Sphingobium sp. SYK-6; D246N) (protein)
chain: TNDERILSWNETPSKPRYTPPPGAIDAHCHVFGPMAQFPFSPKAKYLPRDAGPDMLFALRDHLGFARNVIVQASCHGTDNAATLDAIARAQGKARGIAVVDPAIDEAELAALHEGGMRGIRFNFLKRLVDDAPKDKFLEVAGRLPAGWHVVIYFEADILEELRPFMDAIPVPIVIDHMGRPDVRQGPDGADMKAFRRLLDSREDIWFKATCPDRLDPAGPPWDDFARSVAPLVADYADRVIWGTNWPHPNMQDAIPDDGLVVDMIPRIAPTPELQHKMLVTNPMRLYWSEEM
B7: LigI (Sphingobium sp. SYK-6; R122M) (protein)
chain: TNDERILSWNETPSKPRYTPPPGAIDAHCHVFGPMAQFPFSPKAKYLPRDAGPDMLFALRDHLGFARNVIVQASCHGTDNAATLDAIARAQGKARGIAVVDPAIDEAELAALHEGGMRGIMFNFLKRLVDDAPKDKFLEVAGRLPAGWHVVIYFEADILEELRPFMDAIPVPIVIDHMGRPDVRQGPDGADMKAFRRLLDSREDIWFKATCPDRLDPAGPPWDDFARSVAPLVADYADRVIWGTDWPHPNMQDAIPDDGLVVDMIPRIAPTPELQHKMLVTNPMRLYWSEEM
B8: LigI (Sphingobium sp. SYK-6; R128M) (protein)
chain: TNDERILSWNETPSKPRYTPPPGAIDAHCHVFGPMAQFPFSPKAKYLPRDAGPDMLFALRDHLGFARNVIVQASCHGTDNAATLDAIARAQGKARGIAVVDPAIDEAELAALHEGGMRGIRFNFLKMLVDDAPKDKFLEVAGRLPAGWHVVIYFEADILEELRPFMDAIPVPIVIDHMGRPDVRQGPDGADMKAFRRLLDSREDIWFKATCPDRLDPAGPPWDDFARSVAPLVADYADRVIWGTDWPHPNMQDAIPDDGLVVDMIPRIAPTPELQHKMLVTNPMRLYWSEEM
B9: LigI (Sphingobium sp. SYK-6; H29N) (protein)
chain: TNDERILSWNETPSKPRYTPPPGAIDANCHVFGPMAQFPFSPKAKYLPRDAGPDMLFALRDHLGFARNVIVQASCHGTDNAATLDAIARAQGKARGIAVVDPAIDEAELAALHEGGMRGIRFNFLKRLVDDAPKDKFLEVAGRLPAGWHVVIYFEADILEELRPFMDAIPVPIVIDHMGRPDVRQGPDGADMKAFRRLLDSREDIWFKATCPDRLDPAGPPWDDFARSVAPLVADYADRVIWGTDWPHPNMQDAIPDDGLVVDMIPRIAPTPELQHKMLVTNPMRLYWSEEM

substrate: O=C(O)c1cc(C(=O)O)oc(=O)c1; experiment: purified protein; type: biochemical, Sphingobium sp. SYK-6; details: 50 mM BICINE pH 8.25, 30 °C

Protein	Km [µM]	kcat [s⁻¹]	kcat/Km [M⁻¹ s⁻¹]
B1	214 ± 44	8 ± 0.9	37000 ± 4000
B2	41 ± 7	32 ± 4	780000 ± 50000
B3	89 ± 20	3.6 ± 0.3	41000 ± 6000
B4	217 ± 41	26 ± 2	120000 ± 2000
B5	238 ± 19	8.7 ± 0.3	37000 ± 200
B6	66 ± 13	0.023 ± 0.001	200 ± 34
B7	90 ± 15	0.02 ± 0.001	200 ± 22
B8	465 ± 104	5 ± 0.4	11000 ± 7000
B9	720 ± 122	0.4 ± 0.04	500 ± 37
